In paper PMC7749166 (Communications Biology, 2020):

Tests used:
C5aR^D282A = biological target: T1, C5aR^D282A (Homo sapiens, UniProt P21730, D282A); test: FD-/FV-based AFM dynamic force spectroscopy vs D282A mutant; assay type: binding
T1 construct: Flag (N); His8 (C); made in house; host or cells: HEK-293S cells (BacMam baculovirus)
T1 sequence (P21730 1-350 D282A): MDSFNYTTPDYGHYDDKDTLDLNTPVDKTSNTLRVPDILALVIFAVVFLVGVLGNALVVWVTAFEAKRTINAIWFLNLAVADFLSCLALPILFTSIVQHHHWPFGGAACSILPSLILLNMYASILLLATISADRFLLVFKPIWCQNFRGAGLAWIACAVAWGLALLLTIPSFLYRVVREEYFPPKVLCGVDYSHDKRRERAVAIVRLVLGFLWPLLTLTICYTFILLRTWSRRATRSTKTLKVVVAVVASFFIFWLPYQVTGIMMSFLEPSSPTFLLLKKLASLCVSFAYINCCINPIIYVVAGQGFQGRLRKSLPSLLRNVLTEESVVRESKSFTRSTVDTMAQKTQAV
Experimental: (§1) The reconstituted C5aR sample solution (either wt-C5aR or mutants) was 20-fold diluted in fusion buffer solution (20 mM HEPES, 300 mM NaCl, and 25 mM MgCl2) and adsorbed on freshly cleaved mica for 15 min. After rinsing with imaging buffer (20 mM HEPES and 300 mM NaCl) the sample was transferred to the AFM.
Rectangular Si3N4 AFM cantilevers with silicon tips (BioLever mini, Bruker) were first cleaned with chloroform for 10 min, rinsed with ethanol, N2 dried, and then cleaned for 15 min in an ultraviolet radiation and ozone cleaner (UV-O, Jetlight, CA, USA). For the aminofunctionalization, the cantilevers were immersed in an ethanolamine solution (3.3 g ethanolamine in 6.6 ml DMSO) overnight and then rinsed in DMSO (3 × 1 min) and ethanol (3 × 1 min), followed by N2 drying. This was followed by the N-hydroxysuccinimide (NHS)-PEG27-acetal linker attachment. A 1 mg portion of the NHS-PEG27-acetal linker (JKU, Linz, Austria) was diluted in 0.5 ml chloroform with 30 µl triethylamine and the cantilevers were immersed in this solution for 2 h. After three rinsing steps of 10 min in chloroform and N2 drying, the cantilevers were immersed in a 1% citric acid solution for 10 min, rinsed with pure water (3 × 5 min), and dried with N2 once more. tris-NTA-derivatized AFM cantilevers were obtained by pipetting 100 µl of a 100 µM tris-N-nitrilotriacetic amine trifluoroacetate (Toronto Research Chemicals, Canada) (tris-NTA) solution onto the cantilevers, followed by the addition of 2 μl of a freshly prepared 1 M NaCNBH3 solution. The cantilevers were incubated for 1 h, then 5 μl of a 1 M ethanolamine solution pH 8.0 was added for 10 min to quench the reaction. tris-NTA cantilevers were further used to obtain C5a-derivatized tips. For this purpose, 100 μl of a 1 μM C5a protein solution was premixed with 5 μl NiCl2 5 mM and the mixture was pipetted onto the tris-NTA cantilevers. After 2 h of incubation time, the cantilevers were washed in HEPES buffer 3 × 5 min.
(JKU, Linz, Austria) dissolved in 0.5 ml of chloroform with 30 μl of triethylamine, then washed with chloroform and dried with N2. […] After 3 h of reaction, cantilevers were washed with PBS 3 × 5 min.
AFM experiments were performed with a Multimode 8 AFM equipped with a Nanoscope V controller (Bruker, Santa Barbara, CA, USA) operated in “PeakForce Tapping QNM mode”. All measurements were carried out in imaging buffer at room temperature (≈24 °C). […]
In FD-based AFM measurements, the AFM cantilever is oscillated in a sinusoidal manner well below its resonance frequency, while the sample surface is contoured pixel-by-pixel. For each approach–retraction cycle of the oscillating cantilever, a force–distance curve is recorded. […] Adhesion maps were recorded using a scan rate of 0.2 Hz and 256 × 256 pixels. […]

C5aR∆Tyr = test: FD-/FV-based AFM dynamic force spectroscopy vs Tyr mutant (Y11F, Y14F); assay type: binding, human; conditions: C5a tip (probes effector site), FNdY fit
Excerpt: Finally, to obtain the full picture of the binding mechanism between C5a and its receptor, we also investigated the binding interaction between the C-terminal segment of C5a and the effector site. To achieve this, we abolished the interaction that the rigid core of C5a establishes with sulfonated residues at the binding site, so the C5aR∆Tyr mutant with mutation sites Y11F and Y14F was generated. The lack of sulfonation on the C5aR∆Tyr mutant was validated by western blot using anti-sulfated tyrosine antibodies (Fig. S1). The interaction between the C5a ligand and C5aR∆Tyr was measured and the dependence of the rupture force with the loading rate was plotted in the DFS graph in Fig. 5d. We extracted an equilibrium force Feq of 32 ± 5 pN, a binding equilibrium free energy ΔGbu of −4.7 ± 1.4 kcal mol^−1, and a receptor–ligand half-residence time, τ0.5 of 0.6 ms.
as §1
Rectangular Si3N4 AFM cantilevers with silicon tips (BioLever mini, Bruker) were first cleaned with chloroform for 10 min, rinsed with ethanol, N2 dried, and then cleaned for 15 min in an ultraviolet radiation and ozone cleaner (UV-O, Jetlight, CA, USA). For the aminofunctionalization, the cantilevers were immersed in an ethanolamine solution (3.3 g ethanolamine in 6.6 ml DMSO) overnight and then rinsed in DMSO (3 × 1 min) and ethanol (3 × 1 min), followed by N2 drying. This was followed by the N-hydroxysuccinimide (NHS)-PEG27-acetal linker attachment. A 1 mg portion of the NHS-PEG27-acetal linker (JKU, Linz, Austria) was diluted in 0.5 ml chloroform with 30 µl triethylamine and the cantilevers were immersed in this solution for 2 h. […]

C5aR2 = conditions: cited from earlier work
Excerpt: Our mechanistic insights into the C5a binding process to C5aR could offer a new framework to a better understanding or the intriguing functional divergence between the two C5a receptors and could potentially allow delinea ...

[1] = system: C5aR with mutations Y11F and Y14F; conditions: cited from earlier work
Excerpt: In line with our results, intrinsic binding energies have been previously described for intramolecular binding events inv ...

[2] = FNdY fit, ± s.e.m., ligand-derivatized AFM tip, 20 mM HEPES, 300 mM NaCl, ≈24 °C

B1: C5a: C5a, a large 74-amino acid glycoprotein; endogenous ligand of C5aR (His6-tag at N-terminal end for AFM tips) (protein)
chain: TLQKKIEEIAAKYKHSVVKKCCYDGACVNNDETCEQRAARISLGPRCIKAFTECCVVASQLRANISHKDMQLGR
modifications: left off: His6, N-terminal, kept
With B1 the “drop of the ΔGbu vs wild type” value (C5aR^D282A; AFM, D282A vs WT) was “four”, the “binding equilibrium free energy ΔGbu” value (C5aR^D282A; [2]) was -3.4 ± 0.7 kcal/mol and the “equilibrium force Feq” value (C5aR^D282A; [2]) was 27 ± 3 pN. For the same molecule, the “residence time τ0.5” value (C5aR^D282A; FNdY fit, ligand-derivatized AFM tip, 20 mM HEPES, 300 mM NaCl, ≈24 °C) was 0.08 ms, the “residence time τ0.5” value (C5aR∆Tyr) was 0.6 ms and the “binding equilibrium free energy ΔGbu” value (C5aR∆Tyr; ± s.e.m.) was -4.7 ± 1.4 kcal/mol. The “equilibrium force Feq” value (C5aR∆Tyr; ± s.e.m.) was 32 ± 5 pN, the “C5a binding to C5aR2 upon mutation of three N-terminal tyrosine residues” value (C5aR2) was “did not significantly change C5a binding to C5aR2” and the “G-protein coupling at C5aR2” value (C5aR2) was “without any detectable G-protein coupling”. For the same molecule, the “β arrestins (βarr) recruitment at C5aR2” value (C5aR2) was “robust β arrestins (βarr) recruitment” and the “signaling of C5aR induced by C5a upon Y11F and Y14F mutations” value [1] was “could almost abolish the signaling of C5aR”.
